System: Bacillus subtilis
Test: cleaved RNA product abundance (RNA/gDNA barcode ratio) relative to median wild-type variant (ratio to wild type); higher = more accumulation of the downstream cleavage product
How it was run: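 Reporter mRNAs based on truncated aprE or tetM carried barcoded, mutagenized RNase Y cleavage-site windows built from oligos with a 9% error rate and were integrated into the B. subtilis chromosome. Cultures grew in LB at 37°C from OD600 0.0003 to 0.3. Cleaved RNA was gel-selected, reverse transcribed and barcode-sequenced together with genomic DNA barcodes, and UMIs were collapsed. Cleaved product abundance is the per-construct ratio of RNA to gDNA barcodes, scaled to the median of constructs carrying the unmutated site.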

[1] = experiment (reporter, strain, medium): exp 2b: truncated aprE reporter, strain BJT200, cleavage site: cggR-gapA (positions -7 to +36 mutated)
[2] = experiment (reporter, strain, medium): exp 4a: truncated aprE reporter, strain BJT201 with 2% xylose (RNase J1 expressed), cleavage site: cggR-gapA (positions -7 to +36 mutated)
[3] = experiment (reporter, strain, medium): exp 8a: truncated aprE reporter, strain BJT201 with 2% xylose (RNase J1 expressed), cleavage site: glnRA (positions -5 to +31 mutated)

Sequence	cleaved RNA product abundance [1]	cleaved RNA product abundance [2]	further results
ACAGACGAAGGAGCCGCAAAAAAGTTATTAAGGGATGAATAATCCCTCAATATAAAAATCTCTCACTTATTTAAA	1.08	0.82	–
ACAGACGAAGGAGCCGCAAAGAAGTAAGTAAGGGATGAATAATCCCTCAATATAAATATCTCTCACTTATTTAAA	0.212	0.378	–
ACAGACGAAGGAGCCGCAAAGAAGTTATTGAGGGATGAATAATCCCTCAATATACATATCTCTCACTTATTTAAA	–	0.0596	–
ACAGACGAAGGAGCCGCAAATAAGTTATGAAGGGATGAATAATCCCTCAATATAAATATCTCTCACTTATTTAAA	–	0.558	–
CGACATGTCCCGCTTCTTTCATTATTCCGTTAGCAACTGTTTTGCTATATACATTTGCCTTTTAAGAGGAGGAAT	–	–	cleaved RNA product abundance [3]: 0.599
ACAGACGAAGGAGCCGCAAAGAAGTTATTAATGGATGAATAATCCCTCAATATAAACATCTCTCACTTATTTAAA	–	0.116	–
ACAGACGAAGGAGCCGCAAAGAGGTTATTAAGGTATGAATAATCCCTCAATATAAATATCTCTCACTTATTTAAA	–	0.1	–
ACAGACGAAGGAGCCGCAAAGAAGTAATTAAAGGATGAATAATCCCTCAATATAAATATCTCTCACTTATTTAAA	0.101	0.105	–
ACAGACGAAGGAGCCGCAAAGAAGTTATTAAGGCATGAATAATCGCTCAATATAAATATCTCTCACTTATTTAAA	–	0.0686	–
ACAGACGAAGGAGCCGCACAGAAGTTATTAAGGGATGAATAATCCCTCAATATACATATCTCTCACTTATTTAAA	–	1.13	–
ACAGACGAAGGAGCCGCAAAGAAGTTTTTAAGGGACGAATAATCCCTCAATATAAATATCTCTCACTTATTTAAA	–	0.444	–
CGACATGTCCCGCTTCTTTCATTAATACGTTAGCAAATGTTTTGCTATATACATTTACCTTTTAAGAGGAGGAAT	–	–	cleaved RNA product abundance [3]: 1.26
ACAGACGAAGGAGCCGCAAAGAAGTTATTTATGGATGAATAATCACTCAATATAAATATCTCTCACTTATTTAAA	–	0.124	–
ACAGACGAAGGAGCCGCAAAGAAGTTATTAATGGATGAATAATCCCTCAATATTAATATCTCTCACTTATTTAAA	–	0.0604	–
ACAGACGAAGGAGCCGCAAAGAAGTTATTAAGGGAGGAATAATCTCTCAATATAAATATCTCTCACTTATTTAAA	–	0.198	–
ACAGACGAAGGAGCCGCAAAGAAGTTATTAAGGCATGAATAATCCCTCAATAGAAATATCTCTCACTTATTTAAA	–	0.0906	–
CGACATGTCCCGCTTCTTTCATTAATCCGTTAGCAACTGTTATGCTAAATACATTTACCTTTTAAGAGGAGGAAT	–	–	cleaved RNA product abundance [3]: 0.111
CGACATGTCCCGCTTCTTTCATTAATCTGTTAGCAACTGTTATGCTATATACATTTACCTTTTAAGAGGAGGAAT	–	–	cleaved RNA product abundance [3]: 0.799
ACAGACGAAGGAGCCGCAAAGAAGTTATTACTGGATGAATAATCCCTCAATATAAATATCTCTCACTTATTTAAA	–	0.199	–
ACAGACGAAGGAGCCGCAAAGAAATTATTAAGCGATGAATAATCACTCAATATAAATATCTCTCACTTATTTAAA	–	0.184	–
ACAGACGAAGGAGCCGCAAAGAAGTTATTAAGGGATGAATAATCACTCAAGATAAATATCTCTCACTTATTTAAA	0.0892	–	–

Sequence	cleaved RNA product abundance [1]	cleaved RNA product abundance [2]	further results
ACAGACGAAGGAGCCGCAAAGAAGTTATTAAGGGATAAACAATCCCTCAATATAAATATCTCTCACTTATTTAAA	0.787	0.798	–
CGACATGTCCCGCTTCTTTCATTAATCCGATAGCAACTGTTTTACTATATACATTTACCTTTTAAGAGGAGGAAT	–	–	cleaved RNA product abundance [3]: 0.459
ACAGACGAAGGAGCCGCAAAGAGGTTATTAAAGGATGAATAATCCCTCAATATAAATATCTCTCACTTATTTAAA	0.166	–	–
ACAGACGAAGGAGCCGCAAAGACTTTATTAAGGGATGAATAATCCCTCAATATAAATATCTCTCACTTATTTAAA	–	0.8	–
ACAGACGAAGGAGCCGCAAAGAAGTTATTAAGGGATGAATAATCCCTCAATATAAATGACTCTCACTTATTTAAA	–	1.3	–
CGACATGTCCCGCTTCTTTCATTAATTCGTTAGCAACTGTTTTGCTATATATATTTACCTTTTAAGAGGAGGAAT	–	–	cleaved RNA product abundance [3]: 1.55
ACAGACGAAGGAGCCGCAAAGAAGTTAATAAGGGATGAATATTCCCTCAATATAAATATCTCTCACTTATTTAAA	0.246	0.279	–
ACAGACGAAGGAGCCGCAAAGAAGTTATTAACGGATGAACAATCCCTCAATATAAATATCTCTCACTTATTTAAA	0.0917	–	–
CGACATGTCCCGCTTCTTTCATTAATCCGTTAGCATCTGTTTTGCTATATACATTTAACTTTTAAGAGGAGGAAT	–	–	cleaved RNA product abundance [3]: 0.999
CGACATGTCCCGCTTCTTTCATTAATCCGTTAGCAACTGATTTGCTATATAGATTTACCTTTTAAGAGGAGGAAT	–	–	cleaved RNA product abundance [3]: 0.979
ACAGACGAAGGAGCCGCAAAGAAGTTATTAAGGGATGAATAATCCCCCTATATAAATATCTCTCACTTATTTAAA	–	0.151	–
ACAGACGAAGGAGCCGCAAAGAATTTATTAAGGGCTGAATAATCCCTCAATATAAATATCTCTCACTTATTTAAA	–	0.402	–
ACAGACGAAGGAGCCGCAAAGAAGTTATTAAGTGATGAATAATCCCTCAATATACATATCTCTCACTTATTTAAA	0.0962	0.19	–
ACAGACGAAGGAGCCGCTAAGAAGTTATTAAGGGATGAATAATCCCTCAAGATAAATATCTCTCACTTATTTAAA	0.249	0.322	–
CGACATGTCCCGCTTCTTTCATTATTCCGTTAGCAACTGTTTTGCTATATACATATACCTTTTAAGAGGAGGAAT	–	–	cleaved RNA product abundance [3]: 1.59
ACAGACGAAGGAGCCGCAAAGAAGTTATTAAGTGATGAATAATCCCTCAATATAAATATCTCTCACTTATTTAAA	0.109	0.126	cleaved RNA product abundance (experiment (reporter, strain, medium): exp 6: tetM reporter, strain 168, cleavage site: cggR-gapA (positions -7 to +36 mutated)): 0.127
CGACATGTCCCGCTTCTTTCATTAATCCGTTTGCAACTGTTTTGCTATATACATTGACCTTTTAAGAGGAGGAAT	–	–	cleaved RNA product abundance [3]: 0.837
ACAGACGAAGGAGCCGCATAGAACTTATTAAGGGATGAATAATCCCTCAATATAAATATCTCTCACTTATTTAAA	0.341	0.499	–
CGACATGTCCCGCTTCTTTCATTAATCCGTTAGAAACTGTTTTGCTATATACATTTATCTTTTAAGAGGAGGAAT	–	–	cleaved RNA product abundance [3]: 0.384
ACAGACGAAGGAGCCGCAAAGAAGTTATTAAGGGATTAATAATCCCTCAATATCAATATCTCTCACTTATTTAAA	–	0.0629	–
ACAGACGAAGGAGCCGCAAAGAAGTTATTAAGGGATTAATAATCCTTCAATATAAATATCTCTCACTTATTTAAA	0.431	0.39	–

Sequence	cleaved RNA product abundance [1]	cleaved RNA product abundance [2]	further results
CGACATGTCCCGCTTCTTTCATTATTCCGTTAGCAACTGTTTTGCTATATACATTCACCTTTTAAGAGGAGGAAT	–	–	cleaved RNA product abundance [3]: 1.3
ACAGACGAAGGAGCCGCAAAGAAGTTATTAAGGGATGAATATTCCCTCATTATAAATATCTCTCACTTATTTAAA	–	0.316	–
ACAGACGAAGGAGCCGCAAATAAGTTATTAAGGGATGAATAATTCCTCAATATAAATATCTCTCACTTATTTAAA	–	0.547	–
ACAGACGAAGGAGCCGCAAAGAAGTTATTTAGGGATGAATAATCCCACAATATAAATATCTCTCACTTATTTAAA	–	0.268	–
ACAGACGAAGGAGCCGCAAAGAAGTTATTAAAGGATGAATAATCCGTCAATATAAATATCTCTCACTTATTTAAA	0.16	0.161	–
ACAGACGAAGGAGCCGCAAAGAAATTATTAAGGGATGAATAATCCCTCAATATAAATATATCTCACTTATTTAAA	–	1.19	–
ACAGACGAAGGAGCCGCAAAGAAATTATTAAGGGATGAATAATCCCTCAAAATAAATATCTCTCACTTATTTAAA	0.257	0.365	–
CGACATGTCCCGCTTCTTTCATTAATCTGTTAGCAACTGTTTTGCTATATACATCTACCTTTTAAGAGGAGGAAT	–	–	cleaved RNA product abundance [3]: 0.993
ACAGACGAAGGAGCCGCAAAGAAGTGATTAAGGCATGAATAATCCCTCAATATAAATATCTCTCACTTATTTAAA	0.11	–	–
CGACATGTCCCGCTTCTTTCATTAATCCGTTAGCAACTGTTTTGCTATATACACGTACCTTTTAAGAGGAGGAAT	–	–	cleaved RNA product abundance [3]: 0.835
CGACATGTCCCGCTTCTTTCATTAATCCGTTAGCAACTGTTTTGCTATCTACAGTTACCTTTTAAGAGGAGGAAT	–	–	cleaved RNA product abundance [3]: 0.0519
CGACATGTCCCGCTTCTTTCATTATTCCGTTTGCAACTGTTTTGCTATATACATTTACCATTTAAGAGGAGGAAT	–	–	cleaved RNA product abundance [3]: 0.356
ACAGACGAAGGAGCCGCAAAGAAGTTATTAAGCGATGAATAATCACTCAATATAAATATCTCTCACTTATTTAAA	–	0.101	–
ACAGACGAAGGAGCCGCAAATAAGTTATTATGGGATGAATAATCCCTCAATATAAATATCTCTCACTTATTTAAA	–	0.365	–
ACAGACGAAGGAGCCGCAAAGAAATTATTAATGTATGAATAATCCCTCAATATAAATATCTCTCACTTATTTAAA	0.117	0.111	–
ACAGACGAAGGAGCCGCAAAGAAGTTATTAAGGTATAAATAATCCCTCAATATAAATGTCTCTCACTTATTTAAA	–	0.11	–
CGACATGTCCCGCTTCTTTCATTAATCCGTTAGCAACTGTTTTGCTGTATAAATTTACCTTTTAAGAGGAGGAAT	–	–	cleaved RNA product abundance [3]: 0.199
ACAGACGAAGGAGCCGCAAAGAATTTATTAAGGGATGAATAATCCCTCAACATAAATATCTCTCACTTATTTAAA	0.298	0.365	–
ACAGACGAAGGAGCCGCAAAGAAGTTATTAAGGGATTAATAATGCCTCAATATAAATATCTCTCACTTATTTAAA	0.14	0.125	–

Source: the supplement of paper PMC11780869
